Biological target: rKgp (Porphyromonas gingivalis) (UniProt Q51817)
Assay: enzyme inhibition assay (chromogenic substrate)

Sequence of rKgp (Porphyromonas gingivalis) (Q51817 25-1732): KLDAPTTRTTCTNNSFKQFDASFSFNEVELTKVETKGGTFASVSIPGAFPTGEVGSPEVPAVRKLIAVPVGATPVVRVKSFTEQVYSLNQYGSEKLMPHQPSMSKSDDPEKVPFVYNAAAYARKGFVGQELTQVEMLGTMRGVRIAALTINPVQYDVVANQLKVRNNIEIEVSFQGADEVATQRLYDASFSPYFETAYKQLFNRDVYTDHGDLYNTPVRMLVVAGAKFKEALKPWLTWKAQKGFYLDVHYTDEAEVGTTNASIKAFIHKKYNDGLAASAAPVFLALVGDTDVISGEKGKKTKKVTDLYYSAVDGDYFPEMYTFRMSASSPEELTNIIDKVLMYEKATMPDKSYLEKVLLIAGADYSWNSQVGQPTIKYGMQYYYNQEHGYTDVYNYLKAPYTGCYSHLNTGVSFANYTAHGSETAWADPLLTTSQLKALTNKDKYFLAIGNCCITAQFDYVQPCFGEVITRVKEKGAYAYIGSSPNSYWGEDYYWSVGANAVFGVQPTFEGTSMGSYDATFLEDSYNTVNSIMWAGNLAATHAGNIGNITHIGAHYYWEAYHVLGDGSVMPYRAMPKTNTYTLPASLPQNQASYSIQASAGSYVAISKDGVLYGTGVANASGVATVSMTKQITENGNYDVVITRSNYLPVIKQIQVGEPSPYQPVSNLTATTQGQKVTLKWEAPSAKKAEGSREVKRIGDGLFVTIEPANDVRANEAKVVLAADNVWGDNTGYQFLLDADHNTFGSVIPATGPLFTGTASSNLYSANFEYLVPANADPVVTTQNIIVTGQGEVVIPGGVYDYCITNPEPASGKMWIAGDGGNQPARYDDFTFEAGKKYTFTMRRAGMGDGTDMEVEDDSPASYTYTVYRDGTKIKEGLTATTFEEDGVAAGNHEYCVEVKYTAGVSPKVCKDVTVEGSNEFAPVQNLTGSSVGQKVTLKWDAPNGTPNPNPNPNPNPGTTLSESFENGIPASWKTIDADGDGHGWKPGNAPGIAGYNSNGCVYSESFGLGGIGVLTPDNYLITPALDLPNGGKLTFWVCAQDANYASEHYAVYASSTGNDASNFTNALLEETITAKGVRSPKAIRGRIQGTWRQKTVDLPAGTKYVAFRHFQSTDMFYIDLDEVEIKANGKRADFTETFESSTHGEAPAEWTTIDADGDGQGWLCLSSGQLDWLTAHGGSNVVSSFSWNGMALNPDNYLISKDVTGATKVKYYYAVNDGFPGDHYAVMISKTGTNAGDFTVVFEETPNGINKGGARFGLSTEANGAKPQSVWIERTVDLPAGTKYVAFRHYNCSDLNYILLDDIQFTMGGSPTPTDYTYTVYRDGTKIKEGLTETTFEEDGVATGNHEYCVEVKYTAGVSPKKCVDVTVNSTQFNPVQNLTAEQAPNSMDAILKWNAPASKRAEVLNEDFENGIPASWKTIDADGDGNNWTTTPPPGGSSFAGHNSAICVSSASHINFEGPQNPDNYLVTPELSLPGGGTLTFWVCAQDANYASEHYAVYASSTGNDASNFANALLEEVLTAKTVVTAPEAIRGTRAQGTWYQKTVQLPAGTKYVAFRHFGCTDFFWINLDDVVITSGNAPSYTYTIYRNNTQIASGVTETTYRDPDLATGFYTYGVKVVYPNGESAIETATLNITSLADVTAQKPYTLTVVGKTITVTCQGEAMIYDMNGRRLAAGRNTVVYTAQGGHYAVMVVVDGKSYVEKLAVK

Row | Substance | Ki | IC50
1 | recombinant Kgp propeptide (rKgp-PP) (from UniProt Q51817) (domain or fragment) | 37.5 µM | 
2 | recombinant RgpB propeptide (rRgpB-PP) (from UniProt P95493 25-229) (domain or fragment) |  | 11 µM
